Target: T1, human insulin receptor extracellular domain (HIR ECD) (human, UniProt P06213 28-956, limits assumed)
T1 construct: extracellular domain
Assay: competitive ligand binding assay, displacement of [125I] murine HIRMAb from plated HIR ECD, Scatchard analysis
Protocol: CHO cells permanently transfected with the HIR ECD were grown in serum free media (SFM), and the HIR ECD was purified with a wheat germ agglutinin affinity column.

Ki: 0.63 nM
B1: chimeric HIRMAb (chimeric monoclonal antibody to the human insulin receptor) (antibody, human IgG1, kappa)
heavy: not shown
light: DIQMTQSPSSLSASLGERVSLTCRASQDIGGNLYWLQQGPDGTIKRLIYATSSLDSGVPKRFSGSRSGSDYSLTISSLESEDFVDYYCLQYSSSPWTFGGATKMEIKRTVAAPSVFIFPPSDEQLKSGTASVVCLLNNFYPREAKVQWKVDNALQSGNSQESVTEQDSKDSTYSLSSTLTLSKADYEKHKVYACEVTHQGLSSPVTKSFNRGEC
notes: chimeric human IgG1/kappa

Source: patent US20070082380A1 (ARMAGEN TECHNOLOGIES, published 2007)
